# Experimental data reported in IntAct's records for PubMed 9428768.
# B1: Cell division control protein 24 (Saccharomyces cerevisiae), P11433 (parent)
# chain: MAIQTRFASGTSLSDLKPKPSATSISIPMQNVMNKPVTEQDSLFHICANIRKRLEVLPQLKPFLQLAYQSSEVLSERQSLLLSQKQHQELLKSNGANRDSSDLAPTLRSSSISTATSLMSMEGISYTNSNPSATPNMEDTLLTFSMGILPITMDCDPVTQLSQLFQQGAPLCILFNSVKPQFKLPVIASDDLKVCKKSIYDFILGCKKHFAFNDEELFTISDVFANSTSQLVKVLEVVETLMNSSPTIFPSKSKTQQIMNAENQHRHQPQQSSKKHNEYVKIIKEFVATERKYVHDLEILDKYRQQLLDSNLITSEELYMLFPNLGDAIDFQRRFLISLEINALVEPSKQRIGALFMHSKHFFKLYEPWSIGQNAAIEFLSSTLHKMRVDESQRFIINNKLELQSFLYKPVQRLCRYPLLVKELLAESSDDNNTKELEAALDISKNIARSINENQRRTENHQVVKKLYGRVVNWKGYRISKFGELLYFDKVFISTTNSSSEPEREFEVYLFEKIIILFSEVVTKKSASSLILKKKSSTSASISASNITDNNGSPHHSYHKRHSNSSSSNNIHLSSSSAAAIIHSSTNSSDNNSNNSSSSSLFKLSANEPKLDLRGRIMIMNLNQIIPQNNRSLNITWESIKEQGNFLLKFKNEETRDNWSSCLQQLIHDLKNEQFKARHHSSTSTTSSTAKSSSMMSPTTTMNTPNHHNSRQTHDSMASFSSSHMKRVSDVLPKRRTTSSSFESEIKSISENFKNSIPESSILFRISYNNNSNNTSSSEIFTLLVEKVWNFDDLIMAINSKISNTHNNNISPITKIKYQDEDGDFVVLGSDEDWNVAKEMLAENNEKFLNIRLY
# partner: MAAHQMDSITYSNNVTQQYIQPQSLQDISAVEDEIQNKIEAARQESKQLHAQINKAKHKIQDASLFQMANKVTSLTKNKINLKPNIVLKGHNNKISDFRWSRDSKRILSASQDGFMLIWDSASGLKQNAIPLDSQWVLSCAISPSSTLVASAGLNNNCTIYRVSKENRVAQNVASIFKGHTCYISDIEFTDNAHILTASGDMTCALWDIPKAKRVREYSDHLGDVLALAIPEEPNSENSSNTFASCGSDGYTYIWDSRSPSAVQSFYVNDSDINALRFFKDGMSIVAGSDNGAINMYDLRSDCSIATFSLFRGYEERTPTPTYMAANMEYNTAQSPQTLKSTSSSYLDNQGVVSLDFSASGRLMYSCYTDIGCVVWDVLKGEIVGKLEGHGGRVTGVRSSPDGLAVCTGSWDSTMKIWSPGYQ
# Variants of: B1
# Settings: with gbb_yeast STE4, P18851
row,effect of a mutation on the interaction,Variant
1,disrupting interaction,S189F
